Experimental data published in patent US20230381316A1 (METHODIST HOSPITAL, published 2023).
Changes are numbered by the printed parent chain.

B1: anti-PSMA mouse monoclonal antibody #1207 (antibody, V domains shown)
VH: VKLQQSGPGLVKPSQSLSLTCAVTGYSITSDYAWNWIRKFPGNKLEWMGYISYSGRTTYNPSLESRISITRDTSKNQFFLQLNSVTTEDTATYYCARCYYGSSSRWYGMDYWGRGTSVAVSS
VL: IVLTQSPAIMSASPGVKVTMTCRASSSVDSSYLHWYQQKSGASPQVWIYSTSNLASGVPARFSGSGSGTSYSLTISSVEAEDAATYYCQQYSGYPLTFGGGTKLEIKR
notes: Full-length mouse IgG from a hybridoma
B2: anti-PSMA mouse monoclonal antibody #1366 (antibody, V domains shown)
VH: VKLQESGPGLVAPSQSLSITCTVSGFSLTDYGVSWIRQPPGKGLEWLGVIWSDGNTYYNSPLKSRLSINKDNSKSQVFLKMNSLQTDDSAMYYCARHKVYTMDYWGQGTSVTVSS
VL: B1 VL with I1T, V16E, D29S, G41S, Q45K, V46L, S50R, V78L, G100A, I106L
notes: as for B1
B3: anti-PSMA mouse monoclonal antibody #219 (antibody, V domains shown)
VH: VQLQQSGPELEKPGASVKMSCKASGYSFTGYNVNWVRQNNGKSLEWIGNIDPLHGGTTYNQKFKAKATLTVDRSSSTAYLQLKNLTSEDSAVYYCARSSRFDYWGQGTTLTVSS
VL: DIVMTQSHKFMSTSVGDRVNITCKASQDVGTAVAWYQQKPGQSPKLLIYWASTRHTGVPDRFTGSGSGTDFTLTISNVQSEDLADYFCHQFTSYPFTFGSGTSLEMKR
notes: as for B1
B4: anti-PSMA mouse monoclonal antibody #1377 (antibody, V domains shown)
VH: VQLQQPGAALVRPGASVRLSCKASGYSFTYYWMNWVMQRPGQGLEWIGMIHPSDSETRLSQKFRDKATLTVDKSSSTVYMQLNSPTSDDSAVYYCARDGNFPYYALDYWGQGTSVTVSS
VL: DVVLTQAPLSLPVSLGDQASISCRSSQSLEYSNGNTYLHWYLQKPGQSPELLIYTVSNRFSGVPDRFSGSGSGTDFTLKIHRVEAEDLGVYFCSQSTHVPTFGGGTKLEIKR
notes: as for B1
B5: anti-PSMA mouse monoclonal antibody #1352 (antibody, IgG2b, V domains shown)
VH: B3 VH with Q2K, M19I, R37K, N39S, L53Y, K64E, R73K, L80M, N84S
VL: B3 VL with L46F, F91Y, S103K
B6: PSMA(446)-CAR (CAR PMC 446, clone 1366, VH-linker-VL) (other)
chain: VKLQESGPGLVAPSQSLSITCTVSGFSLTDYGVSWIRQPPGKGLEWLGVIWSDGNTYYNSPLKSRLSINKDNSKSQVFLKMNSLQTDDSAMYYCARHKVYTMDYWGQGTSVTVSSGGGGSGGGGSGGGGSTVLTQSPAIMSASPGEKVTMTCRASSSVSSSYLHWYQQKSSASPKLWIYRTSNLASGVPARFSGSGSGTSYSLTISSLEAEDAATYYCQQYSGYPLTFGAGTKLELKRTTTPAPRPPTPAPTIASQPLSLRPEACRPAAGGAVHTRGLDFACDIYIWAPLAGTCGVLLLSLVITLYCKRGRKKLLYIFKQPFMRPVQTTQEEDGCSCRFPEEEEGGCELRVKFSRSADAPAYKQGQNQLYNELNLGRREEYDVLDKRRGRDPEMGGKPRRKNPQEGLYNELQKDKMAEAYSEIGMKGERRRGKGHDGLYQGLSTATKDTYDALHMQALPPR
notes: Chimeric antigen receptor on transduced human T cells; also called PMC446 CAR
B7: PSMA(448)-CAR (CAR PMC 448, clone 1207, VH-linker-VL) (other)
chain: VKLQQSGPGLVKPSQSLSLTCAVTGYSITSDYAWNWIRKFPGNKLEWMGYISYSGRTTYNPSLESRISITRDTSKNQFFLQLNSVTTEDTATYYCARCYYGSSSRWYGMDYWGRGTSVAVSSGGGGSGGGGSGGGGSIVLTQSPAIMSASPGVKVTMTCRASSSVDSSYLHWYQQKSGASPQVWIYSTSNLASGVPARFSGSGSGTSYSLTISSVEAEDAATYYCQQYSGYPLTFGGGTKLEIKRTTTPAPRPPTPAPTIASQPLSLRPEACRPAAGGAVHTRGLDFACDIYIWAPLAGTCGVLLLSLVITLYCKRGRKKLLYIFKQPFMRPVQTTQEEDGCSCRFPEEEEGGCELRVKFSRSADAPAYKQGQNQLYNELNLGRREEYDVLDKRRGRDPEMGGKPRRKNPQEGLYNELQKDKMAEAYSEIGMKGERRRGKGHDGLYQGLSTATKDTYDALHMQALPPR
notes: Chimeric antigen receptor on transduced human T cells; also called PMC448 CAR
B8: PSMA(8LH)-CAR, derived from antibody #1207 (VL-linker-VH) (other)
chain: IVLTQSPAIMSASPGVKVTMTCRASSSVDSSYLHWYQQKSGASPQVWIYSTSNLASGVPARFSGSGSGTSYSLTISSVEAEDAATYYCQQYSGYPLTFGGGTKLEIKRGGGGSGGGGSGGGGSVKLQQSGPGLVKPSQSLSLTCAVTGYSITSDYAWNWIRKFPGNKLEWMGYISYSGRTTYNPSLESRISITRDTSKNQFFLQLNSVTTEDTATYYCARCYYGSSSRWYGMDYWGRGTSVAVSSTTTPAPRPPTPAPTIASQPLSLRPEACRPAAGGAVHTRGLDFACDIYIWAPLAGTCGVLLLSLVITLYCKRGRKKLLYIFKQPFMRPVQTTQEEDGCSCRFPEEEEGGCELRVKFSRSADAPAYKQGQNQLYNELNLGRREEYDVLDKRRGRDPEMGGKPRRKNPQEGLYNELQKDKMAEAYSEIGMKGERRRGKGHDGLYQGLSTATKDTYDALHMQALPPR
notes: Chimeric antigen receptor on transduced human T cells
B9: PSMA(7LH)-CAR, derived from antibody #1352 (VL-linker-VH) (other)
chain: DIVMTQSHKFMSTSVGDRVNITCKASQDVGTAVAWYQQKPGQSPKFLIYWASTRHTGVPDRFTGSGSGTDFTLTISNVQSEDLADYFCHQYTSYPFTFGSGTKLEMKRGGGGSGGGGSGGGGSVKLQQSGPELEKPGASVKISCKASGYSFTGYNVNWVKQSNGKSLEWIGNIDPYHGGTTYNQKFEAKATLTVDKSSSTAYMQLKSLTSEDSAVYYCARSSRFDYWGQGTTLTVSSTTTPAPRPPTPAPTIASQPLSLRPEACRPAAGGAVHTRGLDFACDIYIWAPLAGTCGVLLLSLVITLYCKRGRKKLLYIFKQPFMRPVQTTQEEDGCSCRFPEEEEGGCELRVKFSRSADAPAYKQGQNQLYNELNLGRREEYDVLDKRRGRDPEMGGKPRRKNPQEGLYNELQKDKMAEAYSEIGMKGERRRGKGHDGLYQGLSTATKDTYDALHMQALPPR
notes: as for B8
B10: PSMA(444)-CAR (CAR PMC 444, clone 219, VH-linker-VL) (other)
chain: VQLQQSGPELEKPGASVKMSCKASGYSFTGYNVNWVRQNNGKSLEWIGNIDPLHGGTTYNQKFKAKATLTVDRSSSTAYLQLKNLTSEDSAVYYCARSSRFDYWGQGTTLTVSSGGGGSGGGGSGGGGSDIVMTQSHKFMSTSVGDRVNITCKASQDVGTAVAWYQQKPGQSPKLLIYWASTRHTGVPDRFTGSGSGTDFTLTISNVQSEDLADYFCHQFTSYPFTFGSGTSLEMKRTTTPAPRPPTPAPTIASQPLSLRPEACRPAAGGAVHTRGLDFACDIYIWAPLAGTCGVLLLSLVITLYCKRGRKKLLYIFKQPFMRPVQTTQEEDGCSCRFPEEEEGGCELRVKFSRSADAPAYKQGQNQLYNELNLGRREEYDVLDKRRGRDPEMGGKPRRKNPQEGLYNELQKDKMAEAYSEIGMKGERRRGKGHDGLYQGLSTATKDTYDALHMQALPPR
notes: Chimeric antigen receptor (scFv-CD8a TM-4-1BB-CD3zeta) on transduced human T cells; also called PMC444 CAR
B11: PSMA(447)-CAR (CAR PMC 447, clone 1352, VH-linker-VL) (other)
chain: VKLQQSGPELEKPGASVKISCKASGYSFTGYNVNWVKQSNGKSLEWIGNIDPYHGGTTYNQKFEAKATLTVDKSSSTAYMQLKSLTSEDSAVYYCARSSRFDYWGQGTTLTVSSGGGGSGGGGSGGGGSDIVMTQSHKFMSTSVGDRVNITCKASQDVGTAVAWYQQKPGQSPKFLIYWASTRHTGVPDRFTGSGSGTDFTLTISNVQSEDLADYFCHQYTSYPFTFGSGTKLEMKRTTTPAPRPPTPAPTIASQPLSLRPEACRPAAGGAVHTRGLDFACDIYIWAPLAGTCGVLLLSLVITLYCKRGRKKLLYIFKQPFMRPVQTTQEEDGCSCRFPEEEEGGCELRVKFSRSADAPAYKQGQNQLYNELNLGRREEYDVLDKRRGRDPEMGGKPRRKNPQEGLYNELQKDKMAEAYSEIGMKGERRRGKGHDGLYQGLSTATKDTYDALHMQALPPR
notes: Chimeric antigen receptor on transduced human T cells; also called PMC447 CAR
B12: PSMA(6LH)-CAR, derived from antibody #1366 (VL-linker-VH) (other)
chain: TVLTQSPAIMSASPGEKVTMTCRASSSVSSSYLHWYQQKSSASPKLWIYRTSNLASGVPARFSGSGSGTSYSLTISSLEAEDAATYYCQQYSGYPLTFGAGTKLELKRGGGGSGGGGSGGGGSVKLQESGPGLVAPSQSLSITCTVSGFSLTDYGVSWIRQPPGKGLEWLGVIWSDGNTYYNSPLKSRLSINKDNSKSQVFLKMNSLQTDDSAMYYCARHKVYTMDYWGQGTSVTVSSTTTPAPRPPTPAPTIASQPLSLRPEACRPAAGGAVHTRGLDFACDIYIWAPLAGTCGVLLLSLVITLYCKRGRKKLLYIFKQPFMRPVQTTQEEDGCSCRFPEEEEGGCELRVKFSRSADAPAYKQGQNQLYNELNLGRREEYDVLDKRRGRDPEMGGKPRRKNPQEGLYNELQKDKMAEAYSEIGMKGERRRGKGHDGLYQGLSTATKDTYDALHMQALPPR
notes: as for B8

Each binder was assayed against T1, prostate-specific membrane antigen (PSMA) on PSMA-positive prostate cancer cells (LNCaP, VCaP) (human, UniProt Q04609 1-750) (assay: flow cytometry on LNCaP cells).
T1 construct: Endogenous PSMA on LNCaP and VCaP cells; also called FOLH1; PSMA antigen on cancer cell surface
T1 sequence (Q04609 whole entry): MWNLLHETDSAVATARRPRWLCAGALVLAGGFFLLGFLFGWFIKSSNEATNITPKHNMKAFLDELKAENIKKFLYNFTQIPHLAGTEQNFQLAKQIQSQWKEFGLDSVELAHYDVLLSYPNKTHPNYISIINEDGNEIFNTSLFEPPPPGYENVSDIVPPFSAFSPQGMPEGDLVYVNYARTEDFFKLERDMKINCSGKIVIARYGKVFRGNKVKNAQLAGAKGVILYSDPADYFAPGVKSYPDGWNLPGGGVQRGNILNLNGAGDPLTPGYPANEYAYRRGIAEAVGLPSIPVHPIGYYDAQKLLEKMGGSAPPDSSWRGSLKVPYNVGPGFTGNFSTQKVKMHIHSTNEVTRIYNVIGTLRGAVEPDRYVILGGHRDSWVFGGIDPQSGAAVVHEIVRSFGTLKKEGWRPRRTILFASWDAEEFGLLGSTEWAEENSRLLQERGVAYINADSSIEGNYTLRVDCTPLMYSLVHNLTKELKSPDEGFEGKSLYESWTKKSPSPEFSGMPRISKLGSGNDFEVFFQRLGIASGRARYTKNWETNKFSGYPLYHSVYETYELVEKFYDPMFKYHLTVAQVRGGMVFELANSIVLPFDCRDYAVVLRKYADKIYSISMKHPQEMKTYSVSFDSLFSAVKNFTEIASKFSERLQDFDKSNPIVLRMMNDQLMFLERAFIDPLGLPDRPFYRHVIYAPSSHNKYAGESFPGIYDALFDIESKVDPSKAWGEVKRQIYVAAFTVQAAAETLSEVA

Binder	binding result
B1	binds
B2	binds
B3	binds
B4	binds

These binders were tested against T1, prostate-specific membrane antigen … (assay: flow cytometry on mixed PC3 and LNCaP cells, 20 µg antibody, FITC anti-mouse IgG).
Description: Next, the cells were incubated with FITC anti-mouse IgG secondary antibody (Biolegend, cat #406001), followed by flow cytometric analysis.

Binder	binding result
B5	binds

These binders were tested against T2, Fluorescence-labeled PSMA protein (biotin-labelled purified PSMA protein with Alexa Fluor 647 Streptavidin) (human, UniProt Q04609 44-750, biotin label (EZ link Sulfo-NHS-Biotin), incubated with Alexa Fluor 647 Streptavidin) (assay: flow cytometry of CAR T cells with fluorescence labeled recombinant PSMA protein as probe).
T2 construct: This is the purified PSMA protein of m9 after labelling; also called fluorescence labeled recombinant PSMA protein; home-made fluorescent probe
From the text: (A3). In vitro cytotoxicity of PSMA-CAR T cells. Human peripheral blood mononuclear cells (PBMC) were isolated from leukopak following a SOP published by Hanc (HIV/ADIS Network Coordination). T cells including CD4+ and CD8+ T cells were isolated from PBMC with human T cell isolation kit (Miltenyi Biotec). T cells were activated by Dvnabeads human T-Activator CD3/CD28 (ThermoFisher) for 24 hrs, then transduced with lentiviruses expressing PSMA-CARs. Transduced cells were expanded for 8 to 21 days in culture. Flow cytometry was performed to determine the percentage of T cells that express functional CAR. To prepare home-made fluorescent probe, we labeled purified PSMA protein with biotin using EZ link Sulfo-NHS-Biotin (ThermoFisher), then incubated with Alexa Fluor® 647 Streptavidin (BioLegend) to obtain the probe.
For IFNγ induction (FIGS. 14C, 14D)), 4LH-CAR, 7LH-CAR, 5LH-CAR appeared to be the strongest. […] We also tested the in vitro killing on PSMA-positive VCaP cells, PSMA-negative wild type PC3 cells, and PSMA-positive PC3-PSMA stable cells. As anticipated, the PSMA-CAR T cell cytotoxicity IFNγ induction were strictly PSMA-dependent. Moreover, using fluorescence labeled recombinant PSMA protein as probe, flow cytometry analysis was performed on non-transduced and 11 PSMA-CAR T cells.

T2 sequence (Q04609 44-750): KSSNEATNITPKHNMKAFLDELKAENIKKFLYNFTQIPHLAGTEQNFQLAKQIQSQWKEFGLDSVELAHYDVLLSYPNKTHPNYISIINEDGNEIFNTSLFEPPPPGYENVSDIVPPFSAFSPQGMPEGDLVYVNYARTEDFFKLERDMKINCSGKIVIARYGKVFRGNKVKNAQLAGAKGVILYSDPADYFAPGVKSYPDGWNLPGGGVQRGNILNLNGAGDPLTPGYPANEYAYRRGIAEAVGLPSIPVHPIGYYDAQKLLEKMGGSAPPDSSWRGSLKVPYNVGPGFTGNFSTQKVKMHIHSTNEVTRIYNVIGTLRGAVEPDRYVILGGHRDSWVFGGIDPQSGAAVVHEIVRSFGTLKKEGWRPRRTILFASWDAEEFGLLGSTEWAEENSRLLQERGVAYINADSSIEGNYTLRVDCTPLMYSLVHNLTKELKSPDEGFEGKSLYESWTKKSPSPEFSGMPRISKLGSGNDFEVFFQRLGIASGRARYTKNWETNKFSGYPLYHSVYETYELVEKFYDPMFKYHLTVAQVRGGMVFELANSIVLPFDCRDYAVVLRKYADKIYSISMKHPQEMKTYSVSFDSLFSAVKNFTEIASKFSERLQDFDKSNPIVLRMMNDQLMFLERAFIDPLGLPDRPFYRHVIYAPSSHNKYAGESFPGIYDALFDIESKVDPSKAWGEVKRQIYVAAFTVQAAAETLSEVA

Binder	percentage of CAR T cells positive for PSMA binding [%]
B6	19.6
B7	2.23
B8	16
B9	35.5
B10	47.1
B11	3.08
B12	17.8
